Assay results: patent publication US20110243941A1 (published 2011)
Numbering of substitutions follows the chain as printed. Names and notes keep the numbering of the source.

B1: chimeric 4-4-20 anti-fluorescein antibody, wild type Fc (antibody)
chain 1: not shown
chain 2: DVVMTQTPLSLPVSLGDQASISCRSSQSLVHSNGNTYLRWYLQKPGQSPKVLIYKVSNRFSGVPDRFSGSGSGTDFTLKISRVEAEDLGVYFCSQSTHVPWTFGGGTKLEIKRTVAAPSVFIFPPSDEQLKSGTASVVCLLNNFYPREAKVQWKVDNALQSGNSQESVTEQDSKDSTYSLSSTLTLSKADYEKHKVYACEVTHQGLSSPVTKSFNRGEC
B2: ch 4-4-20 E293V, Q295E, A327T (antibody)
chain: EPKSCDKTHTCPPCPAPELLGGPSVFLFPPKPKDTLMISRTPEVTCVVVDVSHEDPEVKFNWYVDGVEVHNAKTKPRVEEYNSTYRVVSVLTVLHQDWLNGKEYKCKVSNKTLPAPIEKTISKAKGQPREPQVYTLPPSREEMTKNQVSLTCLVKGFYPSDIAVEWESNGQPENNYKTTPPVLDSDGSFFLYSKLTVDKSRWQQGNVFSCSVMHEALHNHYTQKSLSLSPGK
B3: ch 4-4-20 Y319F, P352L, P396L (antibody)
chain: B2 chain with V78E, E80Q, Y104F, T112A, P137L, P181L

What was measured:
[1] = biological target: T1, soluble dimeric FcγRIIB-Fc fusion protein (human, UniProt P31994 43-217); test: BIAcore
T1 construct: extracellular domain; also called FcRIIB-Fc; FcγRIIB-G2; not shown: hinge-CH2-CH3 domain of human IgG2
T1 sequence (looked up): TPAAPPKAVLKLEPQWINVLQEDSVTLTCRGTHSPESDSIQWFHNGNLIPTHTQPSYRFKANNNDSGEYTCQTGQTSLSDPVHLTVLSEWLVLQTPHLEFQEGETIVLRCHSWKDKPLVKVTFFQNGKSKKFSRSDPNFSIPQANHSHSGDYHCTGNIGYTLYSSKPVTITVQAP

[2] = biological target: T1, soluble dimeric FcγRIIB-Fc fusion …; test: ELISA
[3] = biological target: T2, FcγRIIIA 158V (human, UniProt P08637 17-208, limits assumed); test: BIAcore, ch4-4-20
T2 construct: valine at 158; also called 3aV158; CD16A 158V
T2 sequence (P08637 17-208 F176V limits assumed): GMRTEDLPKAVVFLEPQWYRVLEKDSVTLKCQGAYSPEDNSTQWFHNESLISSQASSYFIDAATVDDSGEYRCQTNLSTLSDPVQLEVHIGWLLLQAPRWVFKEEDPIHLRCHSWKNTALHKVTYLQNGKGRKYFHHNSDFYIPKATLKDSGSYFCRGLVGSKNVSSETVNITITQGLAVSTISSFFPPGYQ

Row | Binder | Kd [1] [nM] | koff [1] [s⁻¹] | ELISA, OD [2] [OD] | Koff WT/Mut [3]
1 | B1 | 61.4 | 0.085 | 0.4 | 
2 | B2 |  |  |  | 0.86
3 | B3 |  |  |  | 1.23
